This data set concerns the target RFX5 DBD (Homo sapiens) (UniProt P48382). Kind of data set: EMSA. The following applies: KD values only in figure; hmC/mC CpG; EMSA: 20 mM HEPES, 30 mM KCl, 1 mM EDTA, 1 mM (NH4)2SO4, 0.2% Tween 20, 1 mM DTT, 5 uM dA:dT competitor, 2 nM DNA, 20 min, 21 C (pH not stated); pulldown: 50 mM. For orientation: A gel shift assay detects complexes by their altered migration in electrophoresis.

RFX5 DBD (Homo sapiens), sequence (P48382 75-168): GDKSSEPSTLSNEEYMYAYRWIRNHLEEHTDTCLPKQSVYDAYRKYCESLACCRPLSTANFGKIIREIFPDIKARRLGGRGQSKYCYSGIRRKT

For X-box 1 probe hmC/mC, the binding signal (fold weaker than mC/mC (KD)) is 2.5.

The values are drawn from article PMC13042984.
